According to the supplement of paper PMC6755084:

Tested on: F1*sub RNA substrate (template-directed ligation)
Assay: fraction ligated after 30 min (ligated reads / total reads); higher = more ligase activity; sequences stand for … in GAGACCGCAACTGAAAAGTTGT…AGTTCTGCACGTAGAAGCAAAAGGC
Settings: 42 °C
Summary of the method: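 Ribozyme variants were transcribed with T7 from PCR-amplified oligo-pool templates and gel-purified. Ligated and unligated bands, separated on gel, were reverse transcribed with barcoded primers and sequenced on a MiSeq, with core bases filtered at quality ≥20. Fraction ligated per variant was computed as ligated reads divided by total reads.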

Row | Sequence | fraction ligated
1 | TATCACTTGTCGAAGACATTTGGATGGGTTG [3d1956] | 0.801
2 | TATCACTTGTCGAAGACATTTGGATGGTTGA [3d1954] | 0.133
3 | TATCACTTGTCGAAGACATTTGGTGGGTTGA [3d1952] | 0.05
4 | TATCACTTGTCGAAGACCTTGGATGGGTTGA [3d1943] | 0.768
5 | TATCACTTGTCGAAGACCTTTGATGGGTTGA [3d1944] | 0.76
6 | TATCACTTGTCGAAGACCTTTGGAGGGTTGA [3d1946] | 0.198
7 | TATCACTTGTCGAAGACCTTTGGATGGGTTA [3d1948] | 0.773
8 | TATCACTTGTCGAAGACCTTTGGATGGGTTG [3d1949] | 0.79
9 | TATCACTTGTCGAAGACCTTTGGATGGTTGA [3d1947] | 0.299
10 | TATCACTTGTCGAAGACCTTTGGTGGGTTGA [3d1945] | 0.218
11 | TATCACTTGTCGAAGACTTTGGATGGGTTGA [3d1925] | 0.784
12 | TATCACTTGTCGAAGCACTTGGATGGGTTGA [3d1928] | 0.747
13 | TATCACTTGTCGAAGCACTTTGATGGGTTGA [3d1929] | 0.736
14 | TATCACTTGTCGAAGCACTTTGGAGGGTTGA [3d1931] | 0.108
15 | TATCACTTGTCGAAGCACTTTGGATGGGTTA [3d1933] | 0.723
16 | TATCACTTGTCGAAGCACTTTGGATGGGTTG [3d1934] | 0.783
17 | TATCACTTGTCGAAGCACTTTGGATGGTTGA [3d1932] | 0.159
18 | TATCACTTGTCGAAGCACTTTGGTGGGTTGA [3d1930] | 0.0884
19 | TATCACTTGTCGAAGCATTTGGATGGGTTGA [3d1927] | 0.811
20 | TATCACTTGTCGAAGCCTTTGGATGGGTTGA [3d1926] | 0.757
21 | TATCACTTGTCGAGAACTTTGGATGGGTTGA [3d1905] | 0.819
22 | TATCACTTGTCGAGACACTTGGATGGGTTGA [3d1908] | 0.793
23 | TATCACTTGTCGAGACACTTTGATGGGTTGA [3d1909] | 0.74

Row | Sequence | fraction ligated
24 | TATCACTTGTCGAGACACTTTGGAGGGTTGA [3d1911] | 0.104
25 | TATCACTTGTCGAGACACTTTGGATGGGTTA [3d1913] | 0.765
26 | TATCACTTGTCGAGACACTTTGGATGGGTTG [3d1914] | 0.797
27 | TATCACTTGTCGAGACACTTTGGATGGGTTGA [2d208] | 0.816
28 | TATCACTTGTCGAGACACTTTGGATGGTTGA [3d1912] | 0.166
29 | TATCACTTGTCGAGACACTTTGGTGGGTTGA [3d1910] | 0.0759
30 | TATCACTTGTCGAGACATTTGGATGGGTTGA [3d1907] | 0.829
31 | TATCACTTGTCGAGACCTTTGGATGGGTTGA [3d1906] | 0.788
32 | TATCACTTGTCGAGCACTTTGGATGGGTTGA [3d1904] | 0.749
33 | TATCACTTGTCGGACACTTTGGATGGGTTGA [3d1902] | 0.785
34 | TATCACTTGTCGTAAAACTTGGATGGGTTGA [3d2060] | 0.782
35 | TATCACTTGTCGTAAAACTTTGATGGGTTGA [3d2061] | 0.781
36 | TATCACTTGTCGTAAAACTTTGGAGGGTTGA [3d2063] | 0.0898
37 | TATCACTTGTCGTAAAACTTTGGATGGGTTA [3d2065] | 0.764
38 | TATCACTTGTCGTAAAACTTTGGATGGGTTG [3d2066] | 0.791
39 | TATCACTTGTCGTAAAACTTTGGATGGGTTGA [2d234] | 0.818
40 | TATCACTTGTCGTAAAACTTTGGATGGTTGA [3d2064] | 0.185
41 | TATCACTTGTCGTAAAACTTTGGTGGGTTGA [3d2062] | 0.0841
42 | TATCACTTGTCGTAAAATTTGGATGGGTTGA [3d2059] | 0.803
43 | TATCACTTGTCGTAAACACTGGATGGGTTGA [3d2081] | 0.787
44 | TATCACTTGTCGTAAACACTTGATGGGTTGA [3d2082] | 0.727
45 | TATCACTTGTCGTAAACACTTGGAGGGTTGA [3d2084] | 0.0636
46 | TATCACTTGTCGTAAACACTTGGATGGGTTA [3d2086] | 0.492

Row | Sequence | fraction ligated
47 | TATCACTTGTCGTAAACACTTGGATGGGTTG [3d2087] | 0.774
48 | TATCACTTGTCGTAAACACTTGGATGGGTTGA [2d237] | 0.786
49 | TATCACTTGTCGTAAACACTTGGATGGTTGA [3d2085] | 0.105
50 | TATCACTTGTCGTAAACACTTGGTGGGTTGA [3d2083] | 0.119
51 | TATCACTTGTCGTAAACACTTTATGGGTTGA [3d2088] | 0.0805
52 | TATCACTTGTCGTAAACACTTTGAGGGTTGA [3d2090] | 0.0504
53 | TATCACTTGTCGTAAACACTTTGATGGGTTA [3d2092] | 0.0833
54 | TATCACTTGTCGTAAACACTTTGATGGGTTG [3d2093] | 0.682
55 | TATCACTTGTCGTAAACACTTTGATGGGTTGA [2d238] | 0.763
56 | TATCACTTGTCGTAAACACTTTGATGGTTGA [3d2091] | 0.0645
57 | TATCACTTGTCGTAAACACTTTGGAGGGTTA [3d2099] | 0.101
58 | TATCACTTGTCGTAAACACTTTGGAGGGTTG [3d2100] | 0.0384
59 | TATCACTTGTCGTAAACACTTTGGAGGGTTGA [2d240] | 0.0926
60 | TATCACTTGTCGTAAACACTTTGGAGGTTGA [3d2098] | 0.0433
61 | TATCACTTGTCGTAAACACTTTGGATGGGTT [3d2103] | 0.628
62 | TATCACTTGTCGTAAACACTTTGGATGGGTTA [2d242] | 0.77
63 | TATCACTTGTCGTAAACACTTTGGATGGGTTG [2d243] | 0.827
64 | TATCACTTGTCGTAAACACTTTGGATGGTTA [3d2101] | 0.169
65 | TATCACTTGTCGTAAACACTTTGGATGGTTG [3d2102] | 0.17
66 | TATCACTTGTCGTAAACACTTTGGATGGTTGA [2d241] | 0.295
67 | TATCACTTGTCGTAAACACTTTGGGGGTTGA [3d2094] | 0.0881
68 | TATCACTTGTCGTAAACACTTTGGTGGGTTA [3d2096] | 0.057
69 | TATCACTTGTCGTAAACACTTTGGTGGGTTG [3d2097] | 0.0291

Row | Sequence | fraction ligated
70 | TATCACTTGTCGTAAACACTTTGGTGGGTTGA [2d239] | 0.0914
71 | TATCACTTGTCGTAAACACTTTGGTGGTTGA [3d2095] | 0.0341
72 | TATCACTTGTCGTAAACACTTTGTGGGTTGA [3d2089] | 0.0322
73 | TATCACTTGTCGTAAACATTGGATGGGTTGA [3d2074] | 0.804
74 | TATCACTTGTCGTAAACATTTGATGGGTTGA [3d2075] | 0.384
75 | TATCACTTGTCGTAAACATTTGGAGGGTTGA [3d2077] | 0.0367
76 | TATCACTTGTCGTAAACATTTGGATGGGTTA [3d2079] | 0.822
77 | TATCACTTGTCGTAAACATTTGGATGGGTTG [3d2080] | 0.826
78 | TATCACTTGTCGTAAACATTTGGATGGGTTGA [2d236] | 0.83
79 | TATCACTTGTCGTAAACATTTGGATGGTTGA [3d2078] | 0.15
80 | TATCACTTGTCGTAAACATTTGGTGGGTTGA [3d2076] | 0.0521
81 | TATCACTTGTCGTAAACCTTGGATGGGTTGA [3d2067] | 0.783
82 | TATCACTTGTCGTAAACCTTTGATGGGTTGA [3d2068] | 0.672
83 | TATCACTTGTCGTAAACCTTTGGAGGGTTGA [3d2070] | 0.15
84 | TATCACTTGTCGTAAACCTTTGGATGGGTTA [3d2072] | 0.746
85 | TATCACTTGTCGTAAACCTTTGGATGGGTTG [3d2073] | 0.793
86 | TATCACTTGTCGTAAACCTTTGGATGGGTTGA [2d235] | 0.785
87 | TATCACTTGTCGTAAACCTTTGGATGGTTGA [3d2071] | 0.256
88 | TATCACTTGTCGTAAACCTTTGGTGGGTTGA [3d2069] | 0.182
89 | TATCACTTGTCGTAAACTTTGGATGGGTTGA [3d1993] | 0.804
90 | TATCACTTGTCGTAACACTTGGATGGGTTGA [3d1996] | 0.773
91 | TATCACTTGTCGTAACACTTTGATGGGTTGA [3d1997] | 0.464
92 | TATCACTTGTCGTAACACTTTGGAGGGTTGA [3d1999] | 0.0382

Row | Sequence | fraction ligated
93 | TATCACTTGTCGTAACACTTTGGATGGGTTA [3d2001] | 0.545
94 | TATCACTTGTCGTAACACTTTGGATGGGTTG [3d2002] | 0.806
95 | TATCACTTGTCGTAACACTTTGGATGGGTTGA [2d222] | 0.796
96 | TATCACTTGTCGTAACACTTTGGATGGTTGA [3d2000] | 0.0413
97 | TATCACTTGTCGTAACACTTTGGTGGGTTGA [3d1998] | 0.0145
98 | TATCACTTGTCGTAACATTTGGATGGGTTGA [3d1995] | 0.84
99 | TATCACTTGTCGTAACCTTTGGATGGGTTGA [3d1994] | 0.821
100 | TATCACTTGTCGTAAGAACTGGATGGGTTGA [3d2159] | 0.802
101 | TATCACTTGTCGTAAGAACTTGATGGGTTGA [3d2160] | 0.788
102 | TATCACTTGTCGTAAGAACTTGGAGGGTTGA [3d2162] | 0.0364
103 | TATCACTTGTCGTAAGAACTTGGATGGGTTA [3d2164] | 0.404
104 | TATCACTTGTCGTAAGAACTTGGATGGGTTG [3d2165] | 0.777
105 | TATCACTTGTCGTAAGAACTTGGATGGGTTGA [2d255] | 0.805
106 | TATCACTTGTCGTAAGAACTTGGATGGTTGA [3d2163] | 0.0536
107 | TATCACTTGTCGTAAGAACTTGGTGGGTTGA [3d2161] | 0.0804
108 | TATCACTTGTCGTAAGAACTTTATGGGTTGA [3d2166] | 0.067
109 | TATCACTTGTCGTAAGAACTTTGAGGGTTGA [3d2168] | 0.0393
110 | TATCACTTGTCGTAAGAACTTTGATGGGTTA [3d2170] | 0.09
111 | TATCACTTGTCGTAAGAACTTTGATGGGTTG [3d2171] | 0.726
